Data on eight molecules can be found in patent US20240270821A1, “GIP/GLP1/GCG TRI-RECEPTOR AGONISTS AND USES THEREOF” (priority 2023, published 2024).

Substitutions are numbered along the chain they refer to.

Assay in all cases: cell-based or functional assay
For one assay, the target named is hGLP-1R (Homo sapiens, UniProt P43220).
Assay [1] addresses human glucagon receptor (human) (UniProt P47871).
Assay [2] concerns the target T1, human GIP receptor (human) (UniProt P48546).
T1 sequence (looked up): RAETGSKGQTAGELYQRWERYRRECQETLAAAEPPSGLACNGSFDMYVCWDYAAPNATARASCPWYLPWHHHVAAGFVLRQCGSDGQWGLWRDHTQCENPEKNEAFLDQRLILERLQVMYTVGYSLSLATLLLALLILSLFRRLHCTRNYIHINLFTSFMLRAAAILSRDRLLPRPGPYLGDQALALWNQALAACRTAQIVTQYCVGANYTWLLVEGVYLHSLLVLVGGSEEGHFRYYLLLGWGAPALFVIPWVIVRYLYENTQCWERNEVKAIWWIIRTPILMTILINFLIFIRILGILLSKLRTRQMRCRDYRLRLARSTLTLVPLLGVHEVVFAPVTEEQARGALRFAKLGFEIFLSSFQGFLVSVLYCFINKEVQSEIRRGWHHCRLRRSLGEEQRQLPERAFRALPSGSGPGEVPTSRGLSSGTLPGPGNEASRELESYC

Assay [3] concerns the target human GLP-1R (SNAP-GLP-1R expressed in HEK293 cells) (human) (UniProt P43220).

Sequence of human glucagon receptor (human) (P47871 26-477): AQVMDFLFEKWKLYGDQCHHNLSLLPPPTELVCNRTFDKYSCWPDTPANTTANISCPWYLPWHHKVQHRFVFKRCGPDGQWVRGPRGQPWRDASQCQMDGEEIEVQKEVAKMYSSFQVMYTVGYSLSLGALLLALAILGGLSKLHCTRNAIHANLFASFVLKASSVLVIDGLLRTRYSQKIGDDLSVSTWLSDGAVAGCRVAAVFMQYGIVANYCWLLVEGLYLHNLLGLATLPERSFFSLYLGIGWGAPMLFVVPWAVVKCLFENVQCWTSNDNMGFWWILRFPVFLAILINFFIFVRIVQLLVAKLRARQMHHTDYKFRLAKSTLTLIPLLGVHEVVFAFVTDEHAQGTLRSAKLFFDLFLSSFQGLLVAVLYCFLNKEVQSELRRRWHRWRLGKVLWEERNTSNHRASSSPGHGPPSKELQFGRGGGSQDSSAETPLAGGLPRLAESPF
Sequence of hGLP-1R (P43220 24-463): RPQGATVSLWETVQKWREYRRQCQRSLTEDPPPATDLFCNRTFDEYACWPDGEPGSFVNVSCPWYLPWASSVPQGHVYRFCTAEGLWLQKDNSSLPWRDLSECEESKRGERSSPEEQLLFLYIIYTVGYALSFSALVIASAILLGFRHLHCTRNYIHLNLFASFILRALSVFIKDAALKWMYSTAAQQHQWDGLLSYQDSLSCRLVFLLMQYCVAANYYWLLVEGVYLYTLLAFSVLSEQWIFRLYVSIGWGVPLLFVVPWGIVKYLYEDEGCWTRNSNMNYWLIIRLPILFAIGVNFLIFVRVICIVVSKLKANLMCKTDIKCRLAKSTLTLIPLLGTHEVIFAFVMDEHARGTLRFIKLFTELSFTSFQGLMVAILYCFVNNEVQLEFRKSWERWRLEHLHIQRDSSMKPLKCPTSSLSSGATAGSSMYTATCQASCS
Sequence of human GLP-1R (SNAP-GLP-1R expressed in HEK293 cells) (human) (P43220 24-463): as above

B1: Example 136 (peptide)
chain: YXQGTFTSDFSXXLDKKAQXAFIEWLLEGGPSSGAXPPSGE
modifications: synthetic construct; SITE 2: note = 2-Aminoisobutyric Acid; SITE 12: note = L-ornithine; SITE 13: note = alpha-methyl-leucine; SITE 17: note = Lysine is chemically modified through conjugation of the epsilon-amino group of the Lysine side chain with (2-[2-(2-Amino-ethoxy)-ethoxy]-acetyl)-(gamma-Glu)
For the molecule B1, in the assay with hGLP-1R, the Relative cAMP EC50 turned out to be 3.8 nM and the cAMP Rel EC50, nM (in the presence of 1% HSA) was 625 nM. In addition, in assay [1], the Relative cAMP EC50 amounted to 8.73 nM and the cAMP Rel EC50, nM (in the presence of 1% HSA) was found to be 960 nM. In addition, in assay [2], the Relative cAMP EC50 is 0.221 nM and the cAMP Rel EC50, nM (in the presence of 1% HSA) was determined as 32.9 nM. Further, in assay [3], the GLP1R Internalization EC50 was found to be 36.1 nM and the Internalization % TOP was 37.8%.

B2: Example 155 (peptide)
chain: B1 chain with W25Y, G29A, A35E, X36P, E41S
modifications: non-natural residues; lysine acylated with AEEA linker C18 diacid; C-amide; synthetic construct; SITE 2: note = 2-Aminoisobutyric Acid; SITE 12: note = L-ornithine; SITE 13: note = alpha-methyl-leucine; SITE 17: note = Lysine is chemically modified through conjugation of the epsilon-amino group of the Lysine side chain with (2-[2-(2-Amino-ethoxy)-ethoxy]-acetyl)2-(gamma-Glu)
Consider B2, for which the Relative cAMP EC50, nM (0.1% casein) in the assay with hGLP-1R amounted to 2.98 nM; in assay [1], 5.68 nM; in assay [2], 0.177 nM. Besides, the cAMP Rel EC50, nM (1% HSA) was 503 nM with hGLP-1R, 1310 nM in assay [1] and 18.9 nM in assay [2]. For the same molecule, in assay [3], the GLP1R Internalization EC50 is 85.1 nM. Besides, the Internalization % TOP in assay [3] stood at 54.5%.

B3: Example 165 (peptide)
chain: B1 chain with W25Y, G29X, X36P, E41T
modifications: non-natural residues, acylated Lys, C-terminal amide; synthetic construct; SITE 2: note = 2-Aminoisobutyric Acid; SITE 12: note = L-ornithine; SITE 13: note = alpha-methyl-leucine; SITE 17: note = Lysine is chemically modified through conjugation of the epsilon-amino group of the Lysine side chain with (2-[2-(2-Amino-ethoxy)-ethoxy]-acetyl)2-(gamma-Glu)
For the molecule B3, in the assay with hGLP-1R, the Relative cAMP EC50, nM (0.1% casein) is 6.52 nM and the cAMP Rel EC50, nM (1% HSA) is 808 nM. In assay [1], this molecule had a Relative cAMP EC50, nM (0.1% casein) of 4.47 nM and a cAMP Rel EC50, nM (1% HSA) of 1250 nM. In assay [2], the Relative cAMP EC50, nM (0.1% casein) came out at 0.0956 nM and the cAMP Rel EC50, nM (1% HSA) is 18.6 nM. In assay [3], this molecule had a GLP1R Internalization EC50 of 57.5 nM and an Internalization % TOP of 44.5%.

B4: Example 148 (peptide)
chain: B1 chain with X12R, W25Y, P31E, X36P, E41S
modifications: Aib, αMeL; lysine acylated C18 diacid; C-terminal amide; synthetic construct; SITE 2: note = 2-Aminoisobutyric Acid; SITE 13: note = alpha-methyl-leucine; SITE 17: note = Lysine is chemically modified through conjugation of the epsilon-amino group of the Lysine side chain with (2-[2-(2-Amino-ethoxy)-ethoxy]-acetyl)-(gamma-Glu)-CO-(CH2) 16-CO2H; SITE 20: n
Consider B4, for which, in the assay with hGLP-1R, the Relative cAMP EC50, nM (0.1% casein) came to 2.82 nM and the cAMP Rel EC50, nM (1% HSA) came out at 870 nM. For the same molecule, in assay [1], the Relative cAMP EC50, nM (0.1% casein) worked out at 3.92 nM and the cAMP Rel EC50, nM (1% HSA) worked out at 1330 nM. Besides, in assay [2], the Relative cAMP EC50, nM (0.1% casein) was 0.352 nM and the cAMP Rel EC50, nM (1% HSA) was 74.2 nM. Also, in assay [3], the GLP1R Internalization EC50 was 95.5 nM and the Internalization % TOP came out at 37.4%.

B5: Example 158 (peptide)
chain: B1 chain with W25Y, X36P, S39G, E41T
modifications: Lys acylated AEEA-γGlu-C18 diacid; non-natural residues; C-terminal amide; synthetic construct; SITE 2: note = 2-Aminoisobutyric Acid; SITE 12: note = L-ornithine; SITE 13: note = …; SITE 17: note = Lysine is chemically modified through conjugation of the epsilon-amino group of the Lysine side chain with (2-[2-(2-Amino-ethoxy)-ethoxy]-acetyl)-(gamma-Glu)
For the molecule B5, in the assay with hGLP-1R, the Relative cAMP EC50, nM (0.1% casein) worked out at 2.49 nM and the cAMP Rel EC50, nM (1% HSA) was determined as 184 nM. In assay [1], this molecule came in with a Relative cAMP EC50, nM (0.1% casein) of 3.72 nM and a cAMP Rel EC50, nM (1% HSA) of 325 nM. In assay [2], this molecule displayed a Relative cAMP EC50, nM (0.1% casein) of 0.245 nM and a cAMP Rel EC50, nM (1% HSA) of 24.7 nM. Besides, in assay [3], the GLP1R Internalization EC50 stood at 104 nM and the Internalization % TOP is 52.4%.

B6: Example 163 (peptide)
chain: B1 chain with W25Y, P31X, X36P, S39G, E41S
modifications: non-natural residues; lysine acylated with AEEA linker C18 diacid; C-amide; synthetic construct; SITE 2: note = 2-Aminoisobutyric Acid; SITE 12: note = L-ornithine; SITE 13: note = alpha-methyl-leucine; SITE 17: note = Lysine is chemically modified through conjugation of the epsilon-amino group of the Lysine side chain with (2-[2-(2-Amino-ethoxy)-ethoxy]-acetyl)-(gamma-Glu)
In the assay with hGLP-1R, B6 registered a Relative cAMP EC50, nM (0.1% casein) of 6.5 nM and a cAMP Rel EC50, nM (1% HSA) of 762 nM. In assay [1], this molecule yielded a Relative cAMP EC50, nM (0.1% casein) of 5.6 nM and a cAMP Rel EC50, nM (1% HSA) of 790 nM. For the same molecule, in assay [2], the Relative cAMP EC50, nM (0.1% casein) came out at 0.376 nM and the cAMP Rel EC50, nM (1% HSA) stood at 52 nM. In assay [3], this molecule gave a GLP1R Internalization EC50 of 143 nM and an Internalization % TOP of 37.8%.

B7: Example 141 (peptide)
chain: B1 chain with X12K, W25Y, X36P, E41S
modifications: synthetic construct; SITE 2: note = 2-Aminoisobutyric Acid; SITE 13: note = alpha-methyl-leucine; SITE 17: note = Lysine is chemically modified through conjugation of the epsilon-amino group of the Lysine side chain with (2-[2-(2-Amino-ethoxy)-ethoxy]-acetyl)-(gamma-Glu)-CO-(CH2) 16-CO2H; SITE 20: n
With B7, the results for the Relative cAMP EC50 (in the assay with hGLP-1R; in assay [1]; in assay [2]) were 1.96 nM, 1.77 nM and 0.21 nM, respectively. In addition, the cAMP Rel EC50, nM (in the presence of 1% HSA) with hGLP-1R was 562 nM; in assay [1] it was 877 nM; in assay [2], 62.1 nM. The GLP1R Internalization EC50 in assay [3] came out at 95.3 nM. Moreover, the Internalization % TOP in assay [3] is 64.1%.

B8: Example 143 (peptide)
chain: B1 chain with X12R, W25Y, X36P, E41S
modifications: synthetic construct; SITE 2: note = 2-Aminoisobutyric Acid; SITE 13: note = alpha-methyl-leucine; SITE 17: note = Lysine is chemically modified through conjugation of the epsilon-amino group of the Lysine side chain with (2-[2-(2-Amino-ethoxy)-ethoxy]-acetyl)-(gamma-Glu)-CO-(CH2) 16-CO2H; SITE 20: n
Consider B8, for which, in the assay with hGLP-1R, the Relative cAMP EC50 stood at 2.44 nM and the cAMP Rel EC50, nM (in the presence of 1% HSA) was 594 nM. In addition, in assay [1], the Relative cAMP EC50 amounted to 4.51 nM and the cAMP Rel EC50, nM (in the presence of 1% HSA) is 1690 nM. In assay [2], the Relative cAMP EC50 worked out at 0.211 nM and the cAMP Rel EC50, nM (in the presence of 1% HSA) is 63.9 nM. Besides, in assay [3], the GLP1R Internalization EC50 worked out at 337 nM and the Internalization % TOP was 43%.
